Assay results published in the supplement of paper PMC5998384.

Legend:
[1] = system: HeLa Kyoto; assay: solubility change mitosis vs G1/S (difference of NP-40 vs SDS log2 ratios) (log2 ratio difference); higher = more soluble in mitosis
[2] = system: HeLa Kyoto; assay: solubility in G1/S (NP-40 vs SDS abundance) (log2 ratio); higher = more soluble; settings: cell cycle stage: G1/S
[3] = system: HeLa Kyoto; assay: thermal stability score vs G1/S (z-score of summed log2 fold changes over temperatures); higher = more thermally stable than in G1/S
[4] = system: HeLa Kyoto; assay: melting temperature (median over replicates), in situ; higher = more thermally stable
[5] = cell cycle stage: early G1 (4.5 h after nocodazole release)
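For melting temperature (median over replicates), in situ in this document: HeLa Kyoto cells synchronized by double thymidine or nocodazole block, proteins quantified by TMT10plex mass spectrometry, three independent biological replicates.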
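For solubility change mitosis vs G1/S (difference of NP-40 vs SDS log2 ratios) in this document: synchronized HeLa Kyoto cells (double thymidine block for G1/S, nocodazole release for mitosis), protein amounts in NP-40 versus SDS lysates quantified by mass spectrometry, three biological replicates.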
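For solubility in G1/S (NP-40 vs SDS abundance) in this document: HeLa Kyoto cells arrested at G1/S by double thymidine block, proteins quantified by TMT10plex mass spectrometry in mild NP-40 versus SDS extracts, three biological replicates.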
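For thermal stability score vs G1/S (z-score of summed log2 fold changes over temperatures) in this document: synchronized HeLa Kyoto cells, proteins quantified by TMT10plex mass spectrometry, three biological replicates, mitosis taken 0.5 h after nocodazole release, G1/S directly after double thymidine block.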

| Sequence | solubility change mitosis (log2) [1] | solubility in G1/S (log2) [2] | thermal stability score [3, 5] | thermal stability score ([3]; cell cycle stage: mitosis) | melting temperature ([4]; cell cycle stage: G1/S) [°C] | melting temperature ([4]; cell cycle stage: mitosis) [°C] |
| --- | --- | --- | --- | --- | --- | --- |
| MDMLDPGLDPAASATAAAAASHDKGPEAEEGVELQEGGDGPGAEEQTAVAITSVQQAAFGDHNIQYQFRTETNGGQVTYRVVQVTDGQLDGQGDTAGAVSVVSTAAFAGGQQAVTQVGVDGAAQRPGPAAASVPPGPAAPFPLAVIQNPFSNGGSPAAEAVSGEARFAYFPASSVGDTTAVSVQTTDQSLQAGGQFYVMMTPQDVLQTGTQRTIAPRTHPYSPKIDGTRTPRDERRRAQHNEVERRRRDKINNWIVQLSKIIPDCNADNSKTGASKGGILSKACDYIRELRQTNQRMQETFKEAERLQMDNELLRQQIEELKNENALLRAQLQQHNLEMVGEGTRQ [USF2] | 0.142 | -0.0293 | -0.00434 | -0.248 | 54 | 54.6 |
| MDPARKAGAQAMIWTAGWLLLLLLRGGAQALECYSCVQKADDGCSPNKMKTVKCAPGVDVCTEAVGAVETIHGQFSLAVRGCGSGLPGKNDRGLDLHGLLAFIQLQQCAQDRCNAKLNLTSRALDPAGNESAYPPNGVECYSCVGLSREACQGTSPPVVSCYNASDHVYKGCFDGNVTLTAANVTVSLPVRGCVQDEFCTRDGVTGPGFTLSGSCCQGSRCNSDLRNKTYFSPRIPPLVRLPPPEPTTVASTTSVTTSTSAPVRPTSTTKPMPAPTSQTPRQGVEHEASRDEEPRLTGGAAGHQDRSNSGQYPAKGGPQQPHNKGCVAPTAGLAALLLAVAAGVLL [LYPD3] | -0.185 | -0.405 | -2.56 | 3.5 | 56.9 | – |
| MDPLGDTLRRLREAFHAGRTRPAEFRAAQLQGLGRFLQENKQLLHDALAQDLHKSAFESEVSEVAISQGEVTLALRNLRAWMKDERVPKNLATQLDSAFIRKEPFGLVLIIAPWNYPLNLTLVPLVGALAAGNCVVLKPSEISKNVEKILAEVLPQYVDQSCFAVVLGGPQETGQLLEHRFDYIFFTGSPRVGKIVMTAAAKHLTPVTLELGGKNPCYVDDNCDPQTVANRVAWFRYFNAGQTCVAPDYVLCSPEMQERLLPALQSTITRFYGDDPQSSPNLGRIINQKQFQRLRALLGCGRVAIGGQSDESDRYIAPTVLVDVQEMEPVMQEEIFGPILPIVNVQSLDEAIEFINRREKPLALYAFSNSSQVVKRVLTQTSSGGFCGNDGFMHMTLASLPFGGVGASGMGRYHGKFSFDTFSHHRACLLRSPGMEKLNALRYPPQSPRRLRMLLVAMEAQGCSCTLL [ALDH3B1] | -0.152 | 0.252 | 0.958 | 1.14 | 52.2 | 51.8 |
| MDPQRSPLLEVKGNIELKRPLIKAPSQLPLSGSRLKRRPDQMEDGLEPEKKRTRGLGATTKITTSHPRVPSLTTVPQTQGQTTAQKVSKKTGPRCSTAIATGLKNQKPVPAVPVQKSGTSGVPPMAGGKKPSKRPAWDLKGQLCDLNAELKRCRERTQTLDQENQQLQDQLRDAQQQVKALGTERTTLEGHLAKVQAQAEQGQQELKNLRACVLELEERLSTQEGLVQELQKKQVELQEERRGLMSQLEEKERRLQTSEAALSSSQAEVASLRQETVAQAALLTEREERLHGLEMERRRLHNQLQELKGNIRVFCRVRPVLPGEPTPPPGLLLFPSGPGGPSDPPTRLSLSRSDERRGTLSGAPAPPTRHDFSFDRVFPPGSGQDEVFEEIAMLVQSALDGYPVCIFAYGQTGSGKTFTMEGGPGGDPQLEGLIPRALRHLFSVAQELSGQGWTYSFVASYVEIYNETVRDLLATGTRKGQGGECEIRRAGPGSEELTVTNARYVPVSCEKEVDALLHLARQNRAVARTAQNERSSRSHSVFQLQISGEHSSRGLQCGAPLSLVDLAGSERLDPGLALGPGERERLRETQAINSSLSTLGLVIMALSNKESHVPYRNSKLTYLLQNSLGGSAKMLMFVNISPLEENVSESLNSLRFASKVNQCVIGTAQANRK [KIFC1] | 0.12 | 0.0107 | 3.16 | 4.4 | 47.4 | 48.8 |
| MDQEPVGGVERGEAVAASGAAAAAAFGESAGQMSNERGFENVELGVIGKKKKVPRRVIHFVSGETMEEYSTDEDEVDGLEKKDVLPTVDPTKLTWGPYLWFYMLRAATSTLSVCDFLGEKIASVLGISTPKYQYAIDEYYRMKKEEEEEEEENRMSEEAEKQYQQNKLQTDSIVQTDQPETVISSSFVNVNFEMEGDSEVIMESKQNPVSVPP [FAM177A1] | -0.0492 | 0.0523 | 0.512 | -0.398 | 54.5 | 56.5 |
| MDRGTLPLAVALLLASCSLSPTSLAETVHCDLQPVGPERGEVTYTTSQVSKGCVAQAPNAILEVHVLFLEFPTGPSQLELTLQASKQNGTWPREVLLVLSVNSSVFLHLQALGIPLHLAYNSSLVTFQEPPGVNTTELPSFPKTQILEWAAERGPITSAAELNDPQSILLRLGQAQGSLSFCMLEASQDMGRTLEWRPRTPALVRGCHLEGVAGHKEAHILRVLPGHSAGPRTVTVKVELSCAPGDLDAVLILQGPPYVSWLIDANHNMQIWTTGEYSFKIFPEKNIRGFKLPDTPQGLLGEARMLNASIVASFVELPLASIVSLHASSCGGRLQTSPAPIQTTPPKDTCSPELLMSLIQTKCADDAMTLVLKKELVAHLKCTITGLTFWDPSCEAEDRGDKFVLRSAYSSCGMQVSASMISNEAVVNILSSSSPQRKKVHCLNMDSLSFQLGLYLSPHFLQASNTIEPGQQSFVQVRVSPSVSEFLLQLDSCHLDLGPEGGTVELIQGRAAKGNCVSLLSPSPEGDPRFSFLLHFYTVPIPKTGTLSCTVALRPKTGSQDQEVHRTVFMRLNIISPDLSGCTSKGLVLPAVLGITFGAFLIGALLTAALWYIYSHTRSPSKREPVVAVAAPASSESSSTNHSIGSTQSTPCSTSSMA [ENG] | -0.131 | 0.178 | -1.8 | -2.37 | 56.1 | 55.6 |
| MDRPLSSSAEAEEELEWQVASRRRKAWAKCRSSWQASETEDLSTEATTQDEEEDEEEDLPGAQLPAAGGRGNVPNEKIAIWLKDCRTPLGASLDEQSSSTLKGVLVRNGGSFEDDLSLGAEANHLHESDAQIENCNNILAKERRLQFHQKGRSMNSTGSGKSSGTVSSVSELLELYEEDPEEILYNLGFGRDEPDIASKIPSRFFNSSSFAKGIDIKVFLSAQMQRMEVENPNYALTSRFRQIEVLTTVANAFSSLYSQVSGTPLQRIGSMSSVTSNKETDPPPPLTRSNTANRLMKTLSKLNLCVDKTEKGESSSPSPSAEKGKILNVSVIEESGNKNDQKSQKIMKKKESSSMLATVKEEVSGSSAAVTENADSDRISDEANSNFNQGTENEQSKETQSHESKLGEESGIVESKLDSDFNISSHSELENSSELKSVHISTPEKEPCAPLTIPSIRNIMTQQKDSFEMEEVQSTEGEAPHVPATYQLGLTKSKRDHLLRTASQHSDSSGFAEDSTDCLSLNHLQVQESLQAMGSSADSCDSETTVTSLGEDLATPTAQDQPYFNESEEESLVPLQKGLEKAAAVADKRKSGSQDFPQCNTIENTGTKQSTCSPGDHIIEITEVEEDLFPAETVELLREASAESDVGKSSESEFTQYTTHHILKSLASIEAKCSDMSSENTTGPPSSMDRVNTALQRAQMKVCSLSNQRMGRSLLKSKDLLKQRYLFAKAGYPLRRSQSLPTTLLSPVRVVSSVNVRLSPGKETRCSPPSFTYKYTPEEEQELEKRVMEHDGQSLVKSTIFISPSSVKKEEAPQSEAPRVEECHHGRTPTCSRLAPPPMSQSTCSLHSIHSEWQERPLCEHTRTLSTHSVPNISGATCSAFASPFGCPYSHRHATYPYRVCSVNPPSAIEMQLRRVLHDIRNSLQNLSQYPMMRGPDPAAAPYSTQKSSVLPLYENTFQELQVMRRSLNLFRTQMMDLELAMLRQQTMVYHHMTEEERFEVDQLQGLRNSVRMELQDLELQLEERLLGLEEQLRAVRMPSPFRSSALMGMCGSRSADNLSCPSPLNVMEPVTELMQEQSYLKSELGLGLGEMGFEIPPGESSESVFSQATSESSSVCSGPSHANRRTGVPSTASVGKSKTPLVARKKVFRASVALTPTAPSRTGSVQTPPDLESSEEVDAAEGAPEVVGPKSEVEEGHGKLPSMPAAEEMHKNVEQDELQQVIREIKESIVGEIRREIVSGLLAAVSSSKASNSKQDYH [SSFA2] | 0.802 | -0.81 | -1.42 | -0.947 | 50.8 | 49.8 |
| MDRSKENCISGPVKATAPVGGPKRVLVTQQFPCQNPLPVNSGQAQRVLCPSNSSQRIPLQAQKLVSSHKPVQNQKQKQLQATSVPHPVSRPLNNTQKSKQPLPSAPENNPEEELASKQKNEESKKRQWALEDFEIGRPLGKGKFGNVYLAREKQSKFILALKVLFKAQLEKAGVEHQLRREVEIQSHLRHPNILRLYGYFHDATRVYLILEYAPLGTVYRELQKLSKFDEQRTATYITELANALSYCHSKRVIHRDIKPENLLLGSAGELKIADFGWSVHAPSSRRTTLCGTLDYLPPEMIEGRMHDEKVDLWSLGVLCYEFLVGKPPFEANTYQETYKRISRVEFTFPDFVTEGARDLISRLLKHNPSQRPMLREVLEHPWITANSSKPSNCQNKESASKQS [AURKA] | -0.0266 | -0.00432 | -0.0408 | -0.506 | 50 | 50.8 |
| MDRTCEERPAEDGSDEEDPDSMEAPTRIRDTPEDIVLEAPASGLAFHPARDLLAAGDVDGDVFVFSYSCQEGETKELWSSGHHLKACRAVAFSEDGQKLITVSKDKAIHVLDVEQGQLERRVSKAHGAPINSLLLVDENVLATGDDTGGICLWDQRKEGPLMDMRQHEEYIADMALDPAKKLLLTASGDGCLGIFNIKRRRFELLSEPQSGDLTSVTLMKWGKKVACGSSEGTIYLFNWNGFGATSDRFALRAESIDCMVPVTESLLCTGSTDGVIRAVNILPNRVVGSVGQHTGEPVEELALSHCGRFLASSGHDQRLKFWDMAQLRAVVVDDYRRRKKKGGPLRALSSKTWSTDDFFAGLREEGEDSMAQEEKEETGDDSD [WDR55] | -0.0465 | -0.0916 | -0.454 | -1.73 | 51.3 | 51.4 |
| MDSAGQDINLNSPNKGLLSDSMTDVPVDTGVAARTPAVEGLTEAEEEELRAELTKVEEEIVTLRQVLAAKERHCGELKRRLGLSTLGELKQNLSRSWHDVQVSSAYVKTSEKLGEWNEKVTQSDLYKKTQETLSQAGQKTSAALSTVGSAISRKLGDMRNSATFKSFEDRVGTIKSKVVGDRENGSDNLPSSAGSGDKPLSDPAPF [TPD52L2] | 0.6 | 0.127 | -4.67 | -5.07 | 53 | 52.7 |
| MDSEAFQSARDFLDMNFQSLAMKHMDLKQMELDTAAAKVDELTKQLESLWSDSPAPPGPQAGPPSRPPRYSSSSIPEPFGSRGSPRKAATDGADTPFGRSESAPTLHPYSPLSPKGRPSSPRTPLYLQPDAYGSLDRATSPRPRAFDGAGSSLGRAPSPRPGPGPLRQQGPPTPFDFLGRAGSPRGSPLAEGPQAFFPERGPSPRPPATAYDAPASAFGSSLLGSGGSAFAPPLRAQDDLTLRRRPPKAWNESDLDVAYEKKPSQTASYERLDVFARPASPSLQLLPWRESSLDGLGGTGKDNLTSATLPRNYKVSPLASDRRSDAGSYRRSLGSAGPSGTLPRSWQPVSRIPMPPSSPQPRGAPRQRPIPLSMIFKLQNAFWEHGASRAMLPGSPLFTRAPPPKLQPQPQPQPQPQSQPQPQLPPQPQTQPQTPTPAPQHPQQTWPPVNEGPPKPPTELEPEPEIEGLLTPVLEAGDVDEGPVARPLSPTRLQPALPPEAQSVPELEEVARVLAEIPRPLKRRGSMEQAPAVALPPTHKKQYQQIISRLFHRHGGPGPGGPEPELSPITEGSEARAGPPAPAPPAPIPPPAPSQSSPPEQPQSMEMRSVLRKAGSPRKARRARLNPLVLLLDAALTGELEVVQQAVKEMNDPSQPNEEGITALHNAICGANYSIVDFLITAGANVNSPDSHGWTPLHCAASCNDTVICMALVQHGAAIFATTLSDGATAFEKCDPYREGYADCATYLADVEQSMGLMNSGAVYALWDYSAEFGDELSFREGESVTVLRRDGPEETDWWWAALHGQEGYVPRNYFGLFPRVKPQRSKV [PPP1R13L] | 0.0483 | 0.09 | -0.761 | 0.0817 | 51.2 | 51.5 |
